Measured values taken from publication PMC7667886, “Who with whom: functional coordination of E2 enzymes by RING E3 ligases during poly‐ubiquitylation” (The EMBO Journal, 2020).

How the values were obtained:
[1] = target: T1, Ubc7 containing only the catalytic cysteine (C89only = C39A/C141S) (yeast, UniProt Q02159 1-165, C39A | C141S); experiment: SEC; purified Ubc7 and U7BR mixed in a 1:2 ratio, complex purified on Superdex 75; settings: both partners purified
T1 construct: Ubc7, yeast ERAD E2 enzyme, single-cysteine variant C39A/C141S; also called Ubc7(C89only)
T1 sequence (looked up): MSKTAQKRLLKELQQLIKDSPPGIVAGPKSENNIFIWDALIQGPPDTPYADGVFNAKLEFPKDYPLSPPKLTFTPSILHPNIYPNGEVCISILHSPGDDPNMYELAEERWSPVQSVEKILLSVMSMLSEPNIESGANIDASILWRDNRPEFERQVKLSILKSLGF

Ubc7(wt) = target: T2, Ubc7(wt) (yeast, UniProt Q02159 1-165); experiment: as above; settings: both partners purified
T2 construct: Ubc7, yeast ERAD E2 enzyme, wild type
T2 sequence (looked up): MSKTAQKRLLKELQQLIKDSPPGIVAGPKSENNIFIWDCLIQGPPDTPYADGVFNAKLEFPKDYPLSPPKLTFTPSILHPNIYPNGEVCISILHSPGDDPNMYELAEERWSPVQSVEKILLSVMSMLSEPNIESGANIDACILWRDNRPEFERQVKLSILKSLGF

B1: U7BR domain of Cue1 (aa 150–203) (domain or fragment, yeast, UniProt P38428 150-203, looked up)
chain: NLLDKFHVDLNEDMSNLSFKDLDIEERKRLLVWQARKNLETKLQSDKDLQSLLT
notes: Treated on Ni-NTA with thrombin and GST-hSENP1, then washed and eluted with imidazole; source: E. coli BL21/DE3, purified (Ni-NTA, incubation with thrombin and GST-hSENP1, imidazole elution, Superdex 75)
- binding result [1]: binds
- binding result (Ubc7(wt)): binds
